{"source": "patent US20210061922A1", "about": "(CITY OF HOPE, published 2021)", "binders": {"B1": {"name": "Anti-CD16 nanobody (VHH)", "VHH": "EVQLTESGGEDVQAGGSLRLSCSASGLTFSSYNMGWFRRAPGKEREFVASITWSGRDTFYADSVKGRFTISRDNAKNTVYLQMSSLKPEDTATYYCAANPWPVAAPRSGTYWGEGTQVTV", "notes": "also called αCD16; anti-CD16 single domain antibody"}}, "biological_target": "T1, CD16a (UniProt P08637 17-208, limits assumed)", "T1 construct": "also called Fc receptor CD16", "T1 sequence (P08637 17-208 limits assumed)": "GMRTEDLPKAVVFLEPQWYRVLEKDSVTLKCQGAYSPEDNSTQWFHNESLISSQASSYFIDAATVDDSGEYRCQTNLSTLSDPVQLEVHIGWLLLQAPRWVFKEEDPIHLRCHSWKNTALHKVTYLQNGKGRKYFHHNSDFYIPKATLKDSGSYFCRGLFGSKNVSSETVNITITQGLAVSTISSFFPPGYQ", "experiment": "surface plasmon resonance traces (FIG. 10D)"}
{"binder": "B1", "values": [{"measurement": "binding result", "result": "binds"}]}
